# Test results: PMC5296760, “Structural basis of the interaction between Topoisomerase IIIβ and the TDRD3 auxiliary factor” (Scientific Reports, 2017)
# Where “and” joins values, the source holds several entries; their conditions need not be identical. Equal entries are not always repeated.
# T1: TOP3β TOPO domain (1–612) (human, UniProt O95985 1-612)
# T1 construct: human Topoisomerase IIIβ, topoisomerase (TOPO) domain, residues 1–612; also called TOP3β (1–612); catalytic domain of TOP3β; source: baculovirus-infected Sf9 cells, purified (Glutathione Sepharose, GST removed by HRV 3C protease, SEC); not shown: GST, N-terminal, cleaved
# T1 sequence (looked up): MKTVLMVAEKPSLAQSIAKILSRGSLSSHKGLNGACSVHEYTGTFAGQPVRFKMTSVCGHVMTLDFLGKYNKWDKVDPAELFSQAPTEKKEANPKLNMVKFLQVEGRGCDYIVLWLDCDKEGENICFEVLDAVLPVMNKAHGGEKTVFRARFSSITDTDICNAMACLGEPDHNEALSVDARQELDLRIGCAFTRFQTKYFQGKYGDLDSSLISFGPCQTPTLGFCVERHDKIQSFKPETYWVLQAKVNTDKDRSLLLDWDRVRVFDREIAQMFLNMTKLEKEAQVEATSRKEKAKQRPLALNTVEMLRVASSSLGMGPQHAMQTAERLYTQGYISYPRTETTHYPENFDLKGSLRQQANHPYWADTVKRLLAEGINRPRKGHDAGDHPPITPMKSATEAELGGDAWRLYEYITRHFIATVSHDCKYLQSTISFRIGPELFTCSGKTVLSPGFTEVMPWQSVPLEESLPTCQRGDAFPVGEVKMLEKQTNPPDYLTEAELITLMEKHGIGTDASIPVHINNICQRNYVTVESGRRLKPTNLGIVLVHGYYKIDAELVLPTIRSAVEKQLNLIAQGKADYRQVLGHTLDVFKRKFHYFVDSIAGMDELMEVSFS
# B1: TDRD3 OB-fold domain (48–171) (domain or fragment, human, UniProt Q9H7E2-3 48-171, looked up)
# chain: IGKKFLPSDINSGKVEKLEGPCVLQIQKIRNVAAPKDNEESQAAPRMLRLQMTDGHISCTAVEFSYMSKISLNTPPGTKVKLSGIVDIKNGFLLLNDSNTTVLGGEVEHLIEKWELQRSLSKHN
# notes: human TDRD3 OB-fold domain, residues 48–171; purification is described only for DUF–OB; also called TDRD3 OB-fold domain alone; source: E. coli Rosetta (DE3) (as told for DUF–OB)
# B2: TDRD3 (1–161) of the TOP3β–TDRD3 complex (domain or fragment, human, UniProt Q9H7E2-3 1-161, looked up)
# chain: MAQVAGAALSQAGWYLSDEGIEACTSSPDKVNVNDIILIALNTDLRTIGKKFLPSDINSGKVEKLEGPCVLQIQKIRNVAAPKDNEESQAAPRMLRLQMTDGHISCTAVEFSYMSKISLNTPPGTKVKLSGIVDIKNGFLLLNDSNTTVLGGEVEHLIEKW
# notes: human TDRD3 DUF1767 and OB-fold domains; made as 1–171, cut by chymotrypsin at Trp161, deposited as 1–161; also called TDRD3 DUF–OB; source: E. coli Rosetta (DE3), purified; TDRD3 (1–171) mixed with TOP3β (1–612), trimmed with chymotrypsin, SEC; not shown: GST, N-terminal, cleaved
# Target: T1, TOP3β TOPO domain (1–612)
# Assay: SEC; binding analysis using size-exclusion column chromatography (Supplementary Fig. 3a)
# Conditions: both partners purified
row,binding result,Molecule
1,binds,B1

# Target: T1, TOP3β TOPO domain (1–612)
# Assay: crystal structure; TOP3β (1–612)–TDRD3 (1–161) complex, 3.6 Å; sitting drop, 20 °C, 50 mM Na-cacodylate pH 6.2, 10 mM MgSO4, 1.7 M Li2SO4
# Conditions: both partners purified
row,binding result,Molecule
1,binds,B2

# Target: GST-TOP3β (1–612), wild type (human) (UniProt O95985)
# Assay: pull-down; GST-TOP3β (1–612) on Glutathione Sepharose FF, 0.2 μM TDRD3 protein (Fig. 3f left); same buffer, 4 °C, 2 hrs; Coomassie, densitometry
# Conditions: not given
row,percent of wild-type binding [%],Molecule
1,> 60,TDRD3 DUF–OB P82S (from UniProt Q9H7E2-3 1-161) (domain or fragment)
2,60,TDRD3 DUF–OB P^82-GSGSGGS-A^90 (from UniProt Q9H7E2-3 1-161) (domain or fragment)
3,> 60,TDRD3 DUF–OB V79S (from UniProt Q9H7E2-3 1-161) (domain or fragment)
4,> 60,TDRD3 DUF–OB A80S/A81S (from UniProt Q9H7E2-3 1-161) (domain or fragment)
5,50,TDRD3 DUF–OB P92S (from UniProt Q9H7E2-3 1-161) (domain or fragment)
6,30,TDRD3 DUF–OB V79S/P82S (from UniProt Q9H7E2-3 1-161) (domain or fragment)

# Target: GST-TOP3β (1–612), wild type (human) (UniProt O95985)
# Assay: pull-down; GST-TOP3β (1–612) on Glutathione Sepharose FF, 1.0 μM TDRD3 or RMI1 protein (Fig. 3f right, 4b); same buffer, 4 °C, 2 hrs; Coomassie, densitometry
# Conditions: not given
row,percent of wild-type binding [%],Molecule
1,80,TDRD3 DUF–OB A80S/A81Q/A90K/A91P/P92S (from UniProt Q9H7E2-3 1-161) (domain or fragment)
2,40,TDRD3 DUF–OB V^79-SSGG-P^92 (from UniProt Q9H7E2-3 1-161) (domain or fragment)

# Target: GST-TOP3β (1–612), wild type (human) (UniProt O95985)
# Assay: pull-down; GST-TOP3β (1–612) on Glutathione Sepharose FF, 0.5 μM TDRD3 or RMI1 protein (Fig. 3c, 4d, 4e); 20 mM Tris-Cl pH 7.4, 200 mM NaCl, 1 mM MgCl2, 5 mM β-mercaptoethanol, 0.1% Triton X-100, 4 °C, 2 hrs; Coomassie, densitometry
# Conditions: not given
row,percent of wild-type binding,Molecule
1,> 70%,TDRD3 DUF–OB F111Y (from UniProt Q9H7E2-3 1-161) (domain or fragment)
2,35% and 30%,TDRD3 DUF–OB R96M/V109M/F139V (from UniProt Q9H7E2-3 1-161) (domain or fragment)
3,70%,TDRD3-RMI1loop (from UniProt Q9H7E2-3 1-78; Q9H9A7 95-132; Q9H7E2-3 93-161) (domain or fragment)
4,> 70%,TDRD3 DUF–OB R96M (from UniProt Q9H7E2-3 1-161) (domain or fragment)
5,> 70%,TDRD3 DUF–OB R96M/F139V (from UniProt Q9H7E2-3 1-161) (domain or fragment)
6,> 70%,TDRD3 DUF–OB V109M (from UniProt Q9H7E2-3 1-161) (domain or fragment)
7,> 70%,TDRD3 DUF–OB R96M/V109M (from UniProt Q9H7E2-3 1-161) (domain or fragment)
8,> 70%,TDRD3 DUF–OB F139V (from UniProt Q9H7E2-3 1-161) (domain or fragment)
9,> 70%,TDRD3 DUF–OB R96M/F111Y (from UniProt Q9H7E2-3 1-161) (domain or fragment)
10,> 70%,TDRD3 DUF–OB V109M/F111Y/F139V (from UniProt Q9H7E2-3 1-161) (domain or fragment)
